In patent US20220289850 (published 2022):
Values joined by “and” are separate entries in the source; they are usually repeats but may differ in a detail not shown here. Equal values may be shown once.

Molecular target: T1, human integrin avb8 (human)
T1 chain 1: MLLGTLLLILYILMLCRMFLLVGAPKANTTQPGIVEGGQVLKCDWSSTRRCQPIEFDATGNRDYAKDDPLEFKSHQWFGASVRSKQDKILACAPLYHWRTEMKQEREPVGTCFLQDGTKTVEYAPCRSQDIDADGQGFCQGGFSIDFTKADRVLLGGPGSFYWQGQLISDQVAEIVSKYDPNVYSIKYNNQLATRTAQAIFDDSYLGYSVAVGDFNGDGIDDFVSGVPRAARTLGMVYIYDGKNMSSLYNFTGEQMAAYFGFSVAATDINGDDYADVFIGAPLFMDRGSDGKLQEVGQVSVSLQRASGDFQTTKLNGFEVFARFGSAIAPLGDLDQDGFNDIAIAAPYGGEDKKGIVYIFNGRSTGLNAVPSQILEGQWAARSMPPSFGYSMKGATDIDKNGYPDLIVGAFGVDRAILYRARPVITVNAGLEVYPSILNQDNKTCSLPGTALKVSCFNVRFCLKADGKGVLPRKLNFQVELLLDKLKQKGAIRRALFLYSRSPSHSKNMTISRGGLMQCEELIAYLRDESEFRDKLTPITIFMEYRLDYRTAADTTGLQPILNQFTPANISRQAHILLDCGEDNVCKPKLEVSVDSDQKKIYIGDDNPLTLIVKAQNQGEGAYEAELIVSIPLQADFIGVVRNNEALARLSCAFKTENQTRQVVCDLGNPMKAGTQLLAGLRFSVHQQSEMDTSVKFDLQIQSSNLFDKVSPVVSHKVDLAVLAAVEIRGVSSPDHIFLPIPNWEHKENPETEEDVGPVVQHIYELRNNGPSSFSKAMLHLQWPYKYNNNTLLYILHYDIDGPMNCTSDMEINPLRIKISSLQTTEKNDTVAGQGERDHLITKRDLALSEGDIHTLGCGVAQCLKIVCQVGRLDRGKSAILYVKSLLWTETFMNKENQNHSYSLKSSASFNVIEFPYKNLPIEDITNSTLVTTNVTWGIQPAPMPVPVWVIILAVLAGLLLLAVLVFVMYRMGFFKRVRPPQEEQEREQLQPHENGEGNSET
T1 chain 2: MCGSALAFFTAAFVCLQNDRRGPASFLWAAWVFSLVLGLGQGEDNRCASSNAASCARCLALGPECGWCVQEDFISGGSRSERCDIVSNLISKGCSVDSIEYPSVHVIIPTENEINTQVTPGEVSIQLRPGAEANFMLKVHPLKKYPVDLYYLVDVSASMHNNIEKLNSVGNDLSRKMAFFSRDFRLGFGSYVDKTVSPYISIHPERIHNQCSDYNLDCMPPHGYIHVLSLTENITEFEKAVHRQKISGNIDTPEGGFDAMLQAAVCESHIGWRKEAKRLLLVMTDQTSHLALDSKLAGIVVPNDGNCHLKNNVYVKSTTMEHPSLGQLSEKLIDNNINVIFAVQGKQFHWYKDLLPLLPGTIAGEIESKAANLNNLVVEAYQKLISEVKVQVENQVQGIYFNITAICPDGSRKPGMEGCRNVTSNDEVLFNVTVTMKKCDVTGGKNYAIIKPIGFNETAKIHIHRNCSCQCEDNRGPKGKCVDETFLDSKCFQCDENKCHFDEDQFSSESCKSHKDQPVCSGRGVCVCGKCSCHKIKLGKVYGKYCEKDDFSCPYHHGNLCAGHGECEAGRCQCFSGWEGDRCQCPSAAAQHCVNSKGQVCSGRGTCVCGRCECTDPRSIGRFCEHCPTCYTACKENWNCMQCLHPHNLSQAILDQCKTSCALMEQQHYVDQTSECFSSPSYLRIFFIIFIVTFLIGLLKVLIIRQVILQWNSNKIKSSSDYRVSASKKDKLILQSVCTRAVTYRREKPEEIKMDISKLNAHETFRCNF
Assay: FACS U251 cells

EC50: 256 pM and 126 pM
B1: ADWA11 2.4 IgG (antibody)
chain 1: EVQLVESGGGLVQPGGSLRLSCAASGFNIKDYYMNWVRQAPGKGLEWVGWIDPDQGNTIYEPKFQGRFTISADTSKNSAYLQMNSLRAEDTAVYYCARRLLMDYWGQGTLVTVSSASTKGPSVFPLAPSSKSTSGGTAALGCLVKDYFPEPVTVSWNSGALTSGVHTFPAVLQSSGLYSLSSVVTVPSSSLGTQTYICNVNHKPSNTKVDKKVEPKSCDKTHTCPPCPAPEAAGAPSVFLFPPKPKDTLMISRTPEVTCVVVDVSHEDPEVKFNWYVDGVEVHNAKTKPREEQYNSTYRVVSVLTVLHQDWLNGKEYKCKVSNKALPAPIEKTISKAKGQPREPQVYTLPPSREEMTKNQVSLTCLVKGFYPSDIAVEWESNGQPENNYKTTPPVLDSDGSFFLYSKLTVDKSRWQQGNVFSCSVMHEALHNHYTQKSLSLSPGK
chain 2: DIQMTQSPSSLSASVGDRVTITCRSTKSLSHFNGNTYLFWYQQKPGKAPKRLIYYMSSLASGVPSRFSGSGSGTDFTLTISSLQPEDFATYYCQQSLEYPFTFGGGTKVEIKRTVAAPSVFIFPPSDEQLKSGTASVVCLLNNFYPREAKVQWKVDNALQSGNSQESVTEQDSKDSTYSLSSTLTLSKADYEKHKVYACEVTHQGLSSPVTKSFNRGEC
